Entries after “also recorded” stand apart in the source; their conditions may differ.
Columns and labels:
[1] = test system: KPC-derived PDAC cell line (7940B, P9); assay: subcutaneous KPC-derived PDAC tumor model: tumor growth and overall survival; conditions: for anti-tumor activity / impact on tumor growth (in words): mouse, in vivo
[2] = biological target: T1, CD40 (Homo sapiens, UniProt P25942); conditions: cited from earlier work; for dependence on crosslinking for activity: CD40 stimulation
T1 sequence (P25942 21-277): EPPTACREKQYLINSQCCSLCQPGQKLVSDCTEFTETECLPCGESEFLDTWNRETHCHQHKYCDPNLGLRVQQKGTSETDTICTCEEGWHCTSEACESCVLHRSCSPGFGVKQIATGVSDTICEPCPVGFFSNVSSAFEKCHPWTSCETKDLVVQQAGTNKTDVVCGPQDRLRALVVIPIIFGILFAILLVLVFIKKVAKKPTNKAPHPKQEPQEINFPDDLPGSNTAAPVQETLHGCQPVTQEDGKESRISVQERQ

[3] = biological target: CD40 ligand interaction with CD40 (Homo sapiens, UniProt P25942); conditions: cited from earlier work
CD40 ligand interaction with CD40, sequence (P25942 21-277): as above

[4] = test system: FcR; conditions: cited from earlier work
[5] = biological target: T1, CD40; conditions: binding to CD40; ADC-1013: even under acidic conditions (pH 5.4); read-out: binding affinity (Kd); cited from earlier work
[6] = test system: B cell; conditions: cited from earlier work
[7] = test system: B cell lymphoma lines; conditions: cited from earlier work
[8] = biological target: FcgRIIIa (Homo sapiens, UniProt P08637); conditions: non-fucosylated, derived from dacetuzumab; cited from earlier work
FcgRIIIa, sequence (P08637 17-254): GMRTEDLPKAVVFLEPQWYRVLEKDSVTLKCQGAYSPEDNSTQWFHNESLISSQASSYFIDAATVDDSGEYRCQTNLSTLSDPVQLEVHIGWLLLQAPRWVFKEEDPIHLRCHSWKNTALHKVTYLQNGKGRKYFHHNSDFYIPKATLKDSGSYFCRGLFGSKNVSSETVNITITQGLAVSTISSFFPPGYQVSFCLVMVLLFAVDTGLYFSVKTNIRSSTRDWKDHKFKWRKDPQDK

[9] = intravenous infusion, more than 400 human subjects; cited from earlier work

Molecule: Nc1ccn([C@@H]2O[C@H](CO)[C@@H](O)C2(F)F)c(=O)n1 [Gemcitabine, reference compound]
- anti-tumor activity / impact on tumor growth (in words) [1]: no significant impact on tumor growth

Molecule: CP-870,893: anti-CD40 IgG2 antibody (Pfizer and VLST)
- dependence on crosslinking for activity [2]: can mediate CD40 stimulation in the absence of cross-linking
- ability to block CD40 ligand binding [3]: does not block CD40 ligand interaction with CD40
- FcR binding [4]: poor
- Kd [5]: 0.348 nM

Molecule: Dacetuzumab: humanized IgG1 antibody recognizing CD40 (Seattle Genetics)
- agonist activity [2]: partial agonist
- activity in stimulating B cell proliferation [6]: weak activity
- ability to block CD40 ligand binding [3]: enhances CD40 ligand binding to CD40
- Kd [5]: 1 nM
- anti-proliferative and pro-apoptotic properties against B cell lymphoma lines [7]: potent anti-proliferative and pro-apoptotic properties

Molecule: SEA-CD40: non-fucosylated humanized IgG1 anti-CD40 antibody derived from dacetuzumab (Seattle Genetics)
- agonist activity [2]: improved agonist activity
- Kd [5]: 1 nM
- binding to FcgRIIIa [8]: enhanced binding

Molecule: β(1,6)-[poly-(1,3)-D-glucopyranosyl]-poly-β(1,3)-D-glucopyranose [IMPRIME PGG]
- anti-tumor activity / impact on tumor growth (in words) [1]: limited activity as monotherapy; also recorded: minimal activity
- delay in tumor outgrowth / anti-tumor activity, previous experiment ([1]; previous experiment (data not shown)): 3 of 9
- delay in tumor outgrowth (mice with delayed tumor growth) ([1]; single dose day 0: FGK45 0.1 mg i.p., IMPRIME PGG 1.2 mg i.v., gemcitabine 120 mg/kg day -2): 1 of 10
- safety of systemic administration [9]: administered safely

B1: ADC-1013 (antibody, chains of the INN, looked up, V domains shown)
VH: EVQLLESGGGLVQPGGSLRLSCAASGFTFSTYGMHWVRQAPGKGLEWLSYISGGSSYIFYADSVRGRFTISRDNSENALYLQMNSLRAEDTAVYYCARILRGGSGMDLWGQGTLVTVSS
VL: QSVLTQPPSASGTPGQRVTISCTGSSSNIGAGYNVYWYQQLPGTAPKLLIYGNINRPSGVPDRFSGSKSGTSASLAISGLRSEDEADYYCAAWDKSISGLVFGGGTKLTVL
- dependence on crosslinking for activity [2]: activity dependent on FcR binding and crosslinking
- Kd [5]: 0.01 nM

Reference: patent US20210283168A1, “BETA GLUCAN AND CD40 AGONIST COMBINATION IMMUNOTHERAPY” (HiberCell, Inc., priority 2018, published 2021)
